Data: publication PMC4141822

Tests used:
[1] = biological target: T1, Csa5 (Csa5b) WT (Thermoproteus tenax Kra1) (UniProt G4RJZ0); experiment: EMSA; conditions: EMSA: 100 mM HEPES/KOH pH 7, 10 mM beta-mercaptoethanol, 37 C 30 min, 6% native TBE PAGE; MST: 50 mM Tris-HCl pH 7.4, 150 mM NaCl, 0.05% Tween-20, 37 C 30 min …
T1 sequence: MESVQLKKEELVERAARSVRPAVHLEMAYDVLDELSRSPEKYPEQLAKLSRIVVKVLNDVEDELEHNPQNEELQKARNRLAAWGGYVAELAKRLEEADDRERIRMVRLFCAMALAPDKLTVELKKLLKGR

[2] = biological target: T2, Csa5 (Csa5b) WT (Thermoproteus tenax Kra1, UniProt G4RJZ0 1-130); experiment: EMSA; 3.75-60 uM Csa5; EMSA: 100 mM HEPES/KOH pH 7, 10 mM beta-mercaptoethanol, 37 C 30 min, 6% native TBE PAGE; MST: 50 mM Tris-HCl pH 7.4, 150 mM NaCl, 0.05% Tween-20, 37 C 30 min; conditions: protein: recombinant; tags: none stated (pET24a); label: 5' 32P
T2 sequence: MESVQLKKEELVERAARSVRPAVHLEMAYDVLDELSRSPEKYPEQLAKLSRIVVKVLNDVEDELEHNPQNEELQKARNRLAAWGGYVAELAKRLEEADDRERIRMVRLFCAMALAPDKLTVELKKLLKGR

[3] = biological target: T3, Thermoproteus tenax Cas5a (Thermoproteus tenax, UniProt G4RJZ2 1-226); experiment: co-refolding reconstitution, soluble fraction by SDS-PAGE; 300 µg of each GdmCl-solubilized Cas5a, Cas3′, Cas3″ and Cas8a2 mixed with purified Cas7 and a Csa5 variant, co-refolded by stepwise dialysis into GdmCl-free buffer; aggregates precipitated (14,000×g, 30 min, 4°C), soluble proteins concentrated and analysed by SDS-PAGE; conditions: both partners purified
T3 sequence (looked up): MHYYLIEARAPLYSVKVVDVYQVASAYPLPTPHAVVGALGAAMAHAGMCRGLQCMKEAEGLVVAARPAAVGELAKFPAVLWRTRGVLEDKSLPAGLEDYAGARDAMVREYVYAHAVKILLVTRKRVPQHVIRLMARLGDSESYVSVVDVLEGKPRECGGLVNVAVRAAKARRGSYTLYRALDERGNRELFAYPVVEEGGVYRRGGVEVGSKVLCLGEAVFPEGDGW

[4] = biological target: T4, Thermoproteus tenax Cas8a2 (Thermoproteus tenax, UniProt G4RJZ5 1-361); experiment: as above; conditions: both partners purified
T4 construct: also called large subunit
T4 sequence (looked up): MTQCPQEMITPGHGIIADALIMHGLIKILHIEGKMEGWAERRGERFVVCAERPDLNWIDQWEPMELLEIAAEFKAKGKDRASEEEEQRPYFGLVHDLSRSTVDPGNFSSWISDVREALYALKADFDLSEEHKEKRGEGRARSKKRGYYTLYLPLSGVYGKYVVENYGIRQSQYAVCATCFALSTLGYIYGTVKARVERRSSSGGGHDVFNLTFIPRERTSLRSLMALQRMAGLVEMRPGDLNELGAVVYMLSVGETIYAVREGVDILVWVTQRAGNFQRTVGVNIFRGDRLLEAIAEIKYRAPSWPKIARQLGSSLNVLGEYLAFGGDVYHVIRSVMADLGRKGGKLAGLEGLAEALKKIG

[5] = biological target: T5, Thermoproteus tenax Cas7 (Thermoproteus tenax, UniProt G4RJZ1 1-329); experiment: as above; conditions: both partners purified
T5 sequence (looked up): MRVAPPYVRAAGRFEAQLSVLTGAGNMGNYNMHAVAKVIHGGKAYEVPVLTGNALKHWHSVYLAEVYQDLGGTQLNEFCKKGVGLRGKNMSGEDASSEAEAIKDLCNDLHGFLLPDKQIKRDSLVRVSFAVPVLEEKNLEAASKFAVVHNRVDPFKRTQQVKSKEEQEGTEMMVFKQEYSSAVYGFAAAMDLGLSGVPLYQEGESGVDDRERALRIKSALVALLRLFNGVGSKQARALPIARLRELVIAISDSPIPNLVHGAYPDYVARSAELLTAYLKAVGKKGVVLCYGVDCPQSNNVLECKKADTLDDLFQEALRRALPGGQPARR

[6] = biological target: T2, Csa5 (Csa5b) WT; experiment: EMSA; 7-fold weaker than NT DNA; EMSA: 100 mM HEPES/KOH pH 7, 10 mM beta-mercaptoethanol, 37 C 30 min, 6% native TBE PAGE; MST: 50 mM Tris-HCl pH 7.4, 150 mM NaCl, 0.05% Tween-20, 37 C 30 min; conditions: protein: recombinant; tags: none stated (pET24a); label: 5' 32P
[7] = biological target: T2, Csa5 (Csa5b) WT; experiment: EMSA; 15 uM Csa5; EMSA: 100 mM HEPES/KOH pH 7, 10 mM beta-mercaptoethanol, 37 C 30 min, 6% native TBE PAGE; MST: 50 mM Tris-HCl pH 7.4, 150 mM NaCl, 0.05% Tween-20, 37 C 30 min; conditions: protein: recombinant; tags: none stated (pET24a); label: 5' 32P
[8] = biological target: T2, Csa5 (Csa5b) WT; experiment: EMSA; duplex formed with 1000x cold crRNA; 15 uM Csa5; EMSA: 100 mM HEPES/KOH pH 7, 10 mM beta-mercaptoethanol, 37 C 30 min, 6% native TBE PAGE; MST: 50 mM Tris-HCl pH 7.4, 150 mM NaCl, 0.05% Tween-20, 37 C 30 min; conditions: protein: recombinant; tags: none stated (pET24a); label: 5' 32P on DNA
[9] = biological target: T2, Csa5 (Csa5b) WT; experiment: MST; Tris pH 7.4, 150 mM NaCl; no metal; EMSA: 100 mM HEPES/KOH pH 7, 10 mM beta-mercaptoethanol, 37 C 30 min, 6% native TBE PAGE; MST: 50 mM Tris-HCl pH 7.4, 150 mM NaCl, 0.05% Tween-20, 37 C 30 min; conditions: protein: recombinant; tags: none stated (pET24a); label: 5' Cy3
[10] = biological target: T2, Csa5 (Csa5b) WT; experiment: EMSA; no difference from GAG-PAM; EMSA: 100 mM HEPES/KOH pH 7, 10 mM beta-mercaptoethanol, 37 C 30 min, 6% native TBE PAGE; MST: 50 mM Tris-HCl pH 7.4, 150 mM NaCl, 0.05% Tween-20, 37 C 30 min; conditions: protein: recombinant; tags: none stated (pET24a); label: 5' 32P
[11] = biological target: T2, Csa5 (Csa5b) WT; experiment: EMSA; no difference from AGG-PAM; EMSA: 100 mM HEPES/KOH pH 7, 10 mM beta-mercaptoethanol, 37 C 30 min, 6% native TBE PAGE; MST: 50 mM Tris-HCl pH 7.4, 150 mM NaCl, 0.05% Tween-20, 37 C 30 min; conditions: protein: recombinant; tags: none stated (pET24a); label: 5' 32P

With “GTCGACTAATACGACTCACTATAGGCCTATCGCTTGTCCAACCGGGCTCCTCTATATGTCGTCATTAGCTTACCGCTGAGCAATAACTAGCAAGCTT (double strand) [NT/T dsDNA 97 bp]” the binding signal (fold weaker than ssDNA) [1] was 14.

B1: CCA-PAM poly-PAM ssDNA (ssDNA)
DNA: AAAACCAAAACCAAAACCAAAACCAAAACCAAAACCAAAACCAAAACCAAAACCAAAACCAAAACCAAAACCAAAACCAAAACCAAAACCAAAACCAAAA
B1: binds [2].

B2: Thermoproteus tenax Csa5 wild type (TTX_1250) (natural protein, Thermoproteus tenax Kra1, UniProt G4RJZ0 1-130, looked up)
chain: MESVQLKKEELVERAARSVRPAVHLEMAYDVLDELSRSPEKYPEQLAKLSRIVVKVLNDVEDELEHNPQNEELQKARNRLAAWGGYVAELAKRLEEADDRERIRMVRLFCAMALAPDKLTVELKKLLKGR
notes: Csa5 (Csa5b), small subunit of the type I-A Cascade, Thermoproteus tenax Kra1, locus TTX_1250; theoretical mass of the monomer 15.04 kDa; no tag is named and the purification uses none; also called Csa5 WT; Csa5b; source: E. coli Rosetta(DE3)pLysS, purified (heat precipitation 90°C, Blue-Sepharose, MonoQ)
B2: binds [3]; binds [4]; binds [5].

B3: Thermoproteus tenax Csa5 D30A/D33A (natural protein, Thermoproteus tenax Kra1, UniProt G4RJZ0 1-130, looked up)
chain: MESVQLKKEELVERAARSVRPAVHLEMAYAVLAELSRSPEKYPEQLAKLSRIVVKVLNDVEDELEHNPQNEELQKARNRLAAWGGYVAELAKRLEEADDRERIRMVRLFCAMALAPDKLTVELKKLLKGR
notes: Made by site-directed mutagenesis of the pET24a csa5 construct; source: E. coli Rosetta(DE3)pLysS, purified (heat precipitation 90°C, Blue-Sepharose, MonoQ)
B3: binds [3]; binds [4]; binds [5].

B4: Thermoproteus tenax Csa5 Y29A (natural protein, Thermoproteus tenax Kra1, UniProt G4RJZ0 1-130, looked up)
chain: MESVQLKKEELVERAARSVRPAVHLEMAADVLDELSRSPEKYPEQLAKLSRIVVKVLNDVEDELEHNPQNEELQKARNRLAAWGGYVAELAKRLEEADDRERIRMVRLFCAMALAPDKLTVELKKLLKGR
notes: as for B3
B4: binds [3]; binds [4]; binds [5].

B5: Thermoproteus tenax Csa5 D33A (natural protein, Thermoproteus tenax Kra1, UniProt G4RJZ0 1-130, looked up)
chain: MESVQLKKEELVERAARSVRPAVHLEMAYDVLAELSRSPEKYPEQLAKLSRIVVKVLNDVEDELEHNPQNEELQKARNRLAAWGGYVAELAKRLEEADDRERIRMVRLFCAMALAPDKLTVELKKLLKGR
notes: as for B3
B5: binds [3]; binds [4]; binds [5].

For GTCGACTAATACGACTCACTATAGGCCTATCGCTTGTC (ssDNA) [p1 (38 nt)], the binding signal [6] was 12 % bound at 15 uM.

B6: target (T) ssDNA 97 nt (ssDNA)
DNA: AAGCTTGCTAGTTATTGCTCAGCGGTAAGCTAATGACGACATATAGAGGAGCCCGGTTGGACAAGCGATAGGCCTATAGTGAGTCGTATTAGTCGAC
B6: binds [7].

B7: T DNA:crRNA hybrid (DNA:RNA)
DNA: AAGCTTGCTAGTTATTGCTCAGCGGTAAGCTAATGACGACATATAGAGGAGCCCGGTTGGACAAGCGATAGGCCTATAGTGAGTCGTATTAGTCGAC
RNA: AUUGAAAGAUCGCUUGUCCAACCGGGCUCCUCUAUAUGUCGUCAUUAGCUUAGA
B7: no binding [8].

For CGTCATTAGCTTACCGCTGAGCAATAACTAGCAAGCTT (ssDNA) [p3 (38 nt)], the binding signal [6] was 12 % bound at 15 uM.

For ATCGCTTGTCCAACCGGGCTCCTCTATATGTCGTCATT (ssDNA) [p2 (38 nt)], the binding signal [6] was 12 % bound at 15 uM.

B8: CAC-PAM disrupted poly-PAM ssDNA (ssDNA)
DNA: AAAACACAAACACAAACACAAACACAAACACAAACACAAACACAAACACAAACACAAACACAAACACAAACACAAACACAAACACAAACACAAACACAAA
B8: binds [2].

B9: Cy3-non-target ssDNA 80 nt (ssDNA)
DNA: CGACTCACTATAGGCCTATCGCTTGTCCAACCGGGCTCCTCTATATGTCGTCATTAGCTTACCGCTGAGCAATAACTAGC
B9 was tested, and the Kd [9] was 6.49 µM.

B10: AGG-PAM poly-PAM ssDNA (ssDNA)
DNA: AAAAGGAAAAGGAAAAGGAAAAGGAAAAGGAAAAGGAAAAGGAAAAGGAAAAGGAAAAGGAAAAGGAAAAGGAAAAGGAAAAGGAAAAGGAAAAGGAAAA
B10: binds [10].

B11: GAG-PAM disrupted poly-PAM ssDNA (ssDNA)
DNA: AAAAGAGAAAGAGAAAGAGAAAGAGAAAGAGAAAGAGAAAGAGAAAGAGAAAGAGAAAGAGAAAGAGAAAGAGAAAGAGAAAGAGAAAGAGAAAGAGAAA
B11: binds [11].
